Source: US20160194407A1 (AstraZeneca / MedImmune, published 2016)

Tests used:
human CD73 V144K + K180A = target: T1, human CD73 V144K + K180A (human, UniProt P21589 27-553); experiment: SPR ProteOn, His-tagged CD73 variant on HTG chip
T1 chain: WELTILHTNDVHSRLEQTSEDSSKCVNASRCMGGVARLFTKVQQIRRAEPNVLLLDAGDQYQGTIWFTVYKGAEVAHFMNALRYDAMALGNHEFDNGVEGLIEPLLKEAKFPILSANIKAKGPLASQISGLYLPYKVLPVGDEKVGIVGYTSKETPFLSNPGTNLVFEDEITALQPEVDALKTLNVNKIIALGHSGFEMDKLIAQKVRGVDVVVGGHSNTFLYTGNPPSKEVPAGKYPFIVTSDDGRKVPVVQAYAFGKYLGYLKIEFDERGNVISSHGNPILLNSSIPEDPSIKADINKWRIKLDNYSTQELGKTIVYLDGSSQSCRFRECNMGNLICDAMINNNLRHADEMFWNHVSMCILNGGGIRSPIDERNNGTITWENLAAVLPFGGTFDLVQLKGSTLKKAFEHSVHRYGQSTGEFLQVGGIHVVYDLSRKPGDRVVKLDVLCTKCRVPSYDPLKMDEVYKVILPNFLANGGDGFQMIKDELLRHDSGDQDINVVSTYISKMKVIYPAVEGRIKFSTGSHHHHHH

[1] = target: T2, cynomolgus CD73 extracellular domain (ECD) (cynomolgus); experiment: SPR ProteOn, antibody captured by anti-human Fc, CD73 ECD in mobile phase, 1:1 model
T2 construct: extracellular domain; also called Cynomolgus CD73 ECD; cyno CD73 (SPR Proteon)

murine CD73 on cells = target: T3, murine CD73 on cells (murine, UniProt Q61503 29-551); experiment: cell-based or functional assay
T3 sequence (looked up): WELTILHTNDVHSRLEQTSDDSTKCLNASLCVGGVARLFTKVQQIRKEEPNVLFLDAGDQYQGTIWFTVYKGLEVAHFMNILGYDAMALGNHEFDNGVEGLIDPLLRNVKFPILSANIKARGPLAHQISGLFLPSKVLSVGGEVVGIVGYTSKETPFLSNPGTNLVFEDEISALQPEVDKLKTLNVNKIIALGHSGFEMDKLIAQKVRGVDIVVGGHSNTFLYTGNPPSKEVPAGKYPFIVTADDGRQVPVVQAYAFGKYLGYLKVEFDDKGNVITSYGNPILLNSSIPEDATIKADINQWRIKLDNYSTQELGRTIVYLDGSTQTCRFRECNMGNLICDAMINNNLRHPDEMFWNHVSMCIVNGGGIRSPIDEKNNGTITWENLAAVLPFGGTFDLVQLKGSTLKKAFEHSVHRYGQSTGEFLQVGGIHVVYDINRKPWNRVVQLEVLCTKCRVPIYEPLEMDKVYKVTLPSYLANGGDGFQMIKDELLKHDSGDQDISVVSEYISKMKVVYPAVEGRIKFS

cynomolgus CD73 on cells = target: T4, cynomolgus CD73 on cells (cynomolgus); experiment: flow cytometry on MK-1 cells, one-site fit of median fluorescence
T4 construct: whole, on cells; also called native CD73 on MK-1 cells (cynomolgus)

[2] = target: T5, recombinant mature human CD73 (amino acid positions 1-526) with C-terminal 6x-histidine tag (human, UniProt P21589 27-553); experiment: cell-based or functional assay
T5 sequence: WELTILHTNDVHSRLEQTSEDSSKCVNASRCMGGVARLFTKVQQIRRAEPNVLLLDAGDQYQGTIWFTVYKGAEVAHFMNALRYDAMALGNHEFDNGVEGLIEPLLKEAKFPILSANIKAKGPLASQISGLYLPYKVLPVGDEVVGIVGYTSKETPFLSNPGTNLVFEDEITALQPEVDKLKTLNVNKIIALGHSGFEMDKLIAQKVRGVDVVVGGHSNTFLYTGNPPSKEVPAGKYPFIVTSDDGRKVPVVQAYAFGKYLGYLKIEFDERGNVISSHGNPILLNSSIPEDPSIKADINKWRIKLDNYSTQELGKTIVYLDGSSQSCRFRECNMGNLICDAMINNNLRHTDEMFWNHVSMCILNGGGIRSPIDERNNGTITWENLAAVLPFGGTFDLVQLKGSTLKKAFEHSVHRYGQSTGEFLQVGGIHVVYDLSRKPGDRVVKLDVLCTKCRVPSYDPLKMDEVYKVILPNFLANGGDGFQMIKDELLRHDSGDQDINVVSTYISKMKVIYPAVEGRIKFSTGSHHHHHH

[3] = target: T6, CD73 construct with chicken N- and C-terminal domain sequence and knocked-in human V144 and N185; experiment: SPR ProteOn, MEDI9447 dilutions from 5 nM to 0.3 nM
T6 construct: K180 is conserved between chicken and human; also called chicken CD73 replaced with V144 and N185; knock-in
T6 chain: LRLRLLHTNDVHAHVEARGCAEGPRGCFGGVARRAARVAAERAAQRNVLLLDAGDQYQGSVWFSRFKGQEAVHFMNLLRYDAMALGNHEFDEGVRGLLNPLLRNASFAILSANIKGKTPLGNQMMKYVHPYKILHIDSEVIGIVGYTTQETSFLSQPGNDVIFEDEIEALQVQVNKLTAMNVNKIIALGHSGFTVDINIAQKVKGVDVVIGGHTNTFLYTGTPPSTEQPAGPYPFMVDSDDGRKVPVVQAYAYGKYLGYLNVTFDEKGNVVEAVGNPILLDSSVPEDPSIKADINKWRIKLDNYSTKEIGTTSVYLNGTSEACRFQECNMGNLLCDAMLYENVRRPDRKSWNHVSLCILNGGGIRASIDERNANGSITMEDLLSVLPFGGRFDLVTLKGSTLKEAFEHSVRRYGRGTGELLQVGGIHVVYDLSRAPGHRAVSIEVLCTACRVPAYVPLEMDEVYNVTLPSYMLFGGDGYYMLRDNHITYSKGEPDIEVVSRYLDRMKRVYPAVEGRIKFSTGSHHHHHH

B1: MEDI9447 (antibody, V domains shown)
VH: EVQLLESGGGLVQPGGSLRLSCAASGFTFSSYAYSWVRQAPGKGLEWVSAISGSGGRTYYADSVKGRFTISRDNSKNTLYLQMNSLRAEDTAVYYCARLGYGRVDEWGRGTLVTVSS
VL: QSVLTQPPSASGTPGQRVTISCSGSLSNIGRNPVNWYQQLPGTAPKLLIYLDNLRLSGVPDRFSGSKSGTSASLAISGLQSEDEADYYCATWDDSHPGWTFGGGTKLTVL
notes: also called clone 10.3 antibody; 73combo3
koff (human CD73 V144K + K180A): 0.00425 s⁻¹
kon (human CD73 V144K + K180A): 1.58e+06 M⁻¹ s⁻¹
Kd [1]: 0.0065 nM
koff [1]: 1.76e-05 s⁻¹
kon [1]: 2.71e+06 M⁻¹ s⁻¹
FabZAP internalization, max toxicity, 4T1 (murine CD73 on cells): 97%
Kd (cynomolgus CD73 on cells): 0.084 nM
inhibition of sCD73 hydrolysis of AMP (CellTiterGlo), dose response [2]: ~1 IgG per sCD73 dimer (molar ratio)
fold of the KD for wild-type CD73 [3]: < 20 fold
